Drawing on US20240360201A1 (BIOCYTOGEN PHARMACEUTICALS BEIJING, published 2024), this text covers Kd, koff and kon for two molecules.

One experiment addresses T1, FcγRIIB (human).
T1 construct: recombinant protein used as SPR analyte
The experiment in a line: SPR (Biacore T200, protein A sensor chip), binding to FcγRIIB. From the text: (§1) The Fc receptors included FcγRIIB (FcγRIIB-Acro), FcγRIIA (FcγRIIA-H167-Acro), FcγRIIIA (FcγRIIIA-V176-Acro), FcγRIIIB (FcγRIIIB-NA1-Acro), FcγRI (FcγRI-Sino), and FcRn (FcRn-Acro).
(§2) The Fc receptors included FcγRI (FcγRI-Sino), FcγRIIA (FcγRIIA-H167-Acro and FcγRIIA-R167), FcγRIIB, FcγRIIIA (FcγRIIIA-F176 and FcγRIIIA-V176-Acro), and FcγRIIIB (FcγRIIIB-NA1-Acro).
(SPR reads the build-up and loss of mass on a sensor chip optically.)

Experiment [1] addresses T2, 6×Histidine-tagged human PD-L1 protein (hPDL1-His) (human, UniProt Q9NZQ7 19-238).
T2 construct: also called hPL1-His; His-tagged human PD-L1
The experiment in a line: SPR Biacore T200; binder captured on protein A chip, target as analyte. On the procedure: Binding affinities of the fusion proteins against human CTLA4 (hCTLA4-His) or human PD-L1 (hPDL1) were measured by surface plasmon resonance (SPR) using Biacore™ T200 biosensor equipped with pre-immobilized protein A sensor chips. A CTLA4 antibody CT4-4G12-IgG1 (CT4) was used as a control. ATOR1015-CD86 (CD86) and KN035-IgG1 (with D265A mutation in heavy chain constant domain) were also used as controls.

A further experiment deals with T3, FcγRI-Sino (human, UniProt P12314 16-288, limits assumed).
T3 construct: bought; also called CD64 Protein, Human, Recombinant (His Tag)
T3 sequence (P12314 16-288 limits assumed): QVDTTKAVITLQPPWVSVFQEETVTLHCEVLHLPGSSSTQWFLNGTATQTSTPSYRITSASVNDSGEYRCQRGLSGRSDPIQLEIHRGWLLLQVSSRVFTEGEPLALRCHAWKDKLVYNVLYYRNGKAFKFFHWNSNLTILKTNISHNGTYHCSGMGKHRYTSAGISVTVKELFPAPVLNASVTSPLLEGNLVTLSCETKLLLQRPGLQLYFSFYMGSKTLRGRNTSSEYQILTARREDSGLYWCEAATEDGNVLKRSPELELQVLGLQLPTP
The experiment in a line: SPR (Biacore T200, protein A sensor chip), binding to FcγRI-Sino.
Description: as §1, §2

A further experiment deals with T4, FcγRIIA-R167 (human).
T4 construct: recombinant, His tag; ACRO product; different from FcγRIIA-R167-Sino; also called Human Fc gamma RIIA/CD32a (R167) Protein, His Tag
The experiment in a line: SPR (Biacore T200, protein A sensor chip), binding to FcγRIIA-R167.
Description: as §1, §2

In another experiment the target is T5, FcγRIIIA-F176 (human, UniProt P08637).
T5 construct: recombinant, His tag; ACRO product; different from FcγRIIIA-F176-Sino; also called Human Fc gamma RIIIA/CD16a (F176) Protein, His Tag
T5 sequence (P08637 17-208 limits assumed, form in doubt): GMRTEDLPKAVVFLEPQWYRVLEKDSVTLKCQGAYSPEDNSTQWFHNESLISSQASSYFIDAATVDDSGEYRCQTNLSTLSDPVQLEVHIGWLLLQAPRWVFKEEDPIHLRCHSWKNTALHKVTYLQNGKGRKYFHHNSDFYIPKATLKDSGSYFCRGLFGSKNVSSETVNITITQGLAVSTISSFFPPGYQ
The experiment in a line: SPR (Biacore T200, protein A sensor chip), binding to FcγRIIIA-F176.
Description: as §1, §2

Another experiment has as its target T6, FcγRIIA-H167-Acro (human, UniProt P12318 36-218, limits assumed).
T6 construct: bought; His at 167; also called Human Fc gamma RIIA/CD32a (H167) Protein, His Tag
T6 sequence (looked up): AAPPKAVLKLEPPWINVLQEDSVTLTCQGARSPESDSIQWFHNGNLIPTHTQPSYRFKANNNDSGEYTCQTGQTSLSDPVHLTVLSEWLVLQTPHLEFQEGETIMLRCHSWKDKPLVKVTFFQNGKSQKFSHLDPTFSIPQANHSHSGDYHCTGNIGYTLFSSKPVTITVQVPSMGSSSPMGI
The experiment in a line: SPR (Biacore T200, protein A sensor chip), binding to FcγRIIA-H167-Acro.
Description: as §1, §2

Another experiment has as its target T7, FcγRIIIB-NA1-Acro (human, UniProt O75015 17-200, limits assumed).
T7 construct: bought; also called Human Fc gamma RIIIB/CD16b (NA1) Protein, His Tag
The experiment in a line: SPR (Biacore T200, protein A sensor chip), binding to FcγRIIIB-NA1-Acro.
Description: as §1, §2

In another experiment the target is T8, FcγRIIIA-V176-Acro (human, UniProt P08637 17-208).
T8 construct: bought; Val at 176; also called Human Fc gamma RIIIA/CD16a (V176) Protein, His Tag
T8 sequence (P08637 17-208 F176V limits assumed): as the sequence (P08637 17-208 limits assumed, form in doubt) above, with F160V counted along it
The experiment in a line: SPR (Biacore T200, protein A sensor chip), binding to FcγRIIIA-V176-Acro.
Description: as §1, §2

A further experiment concerns the target human CD40 (hCD40-his) (human, UniProt P25942 21-193). The experiment in a line: SPR Biacore T200; binder captured on protein A chip, target as analyte. On the procedure:
Binding affinity to human CD40 of the obtained fusion proteins PDL1-C40-6A7-FV3A (IgG1), PDL1-C40-6A7-FV3A-IgG4, PDL1-C40-6A7-FV3C (IgG1), PDL1-C40-6A7-FV3A1 (IgG1), PDL1-C40-6A7-FV3A2 (IgG1), and PDL1-C40-6A7-FV3A3 (IgG1) were determined by surface plasmon resonance (SPR) using Biacore™ T200 biosensor equipped with pre-immobilized protein A sensor chips. The original anti-CD40 monoclonal antibody C40-6A7 IgG2 (6A7, VH SEQ ID NO: 91, VL SEQ ID NO: 92), which the scFV was derived from, was used as a control.

Chain of human CD40 (hCD40-his) (P25942 21-193 limits assumed): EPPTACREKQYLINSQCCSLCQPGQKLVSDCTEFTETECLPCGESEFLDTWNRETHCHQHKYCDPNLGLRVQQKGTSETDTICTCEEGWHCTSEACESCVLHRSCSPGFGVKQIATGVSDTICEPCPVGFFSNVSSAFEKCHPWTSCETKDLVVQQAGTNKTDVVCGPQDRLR
T2 sequence (Q9NZQ7 19-238 limits assumed): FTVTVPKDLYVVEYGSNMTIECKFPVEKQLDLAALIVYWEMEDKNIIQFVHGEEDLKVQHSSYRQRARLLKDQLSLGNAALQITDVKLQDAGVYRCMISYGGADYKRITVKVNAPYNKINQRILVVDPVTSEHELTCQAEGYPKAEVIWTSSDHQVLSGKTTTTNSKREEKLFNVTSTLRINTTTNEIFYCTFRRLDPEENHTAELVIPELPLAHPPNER
T1 sequence (P31994 43-217): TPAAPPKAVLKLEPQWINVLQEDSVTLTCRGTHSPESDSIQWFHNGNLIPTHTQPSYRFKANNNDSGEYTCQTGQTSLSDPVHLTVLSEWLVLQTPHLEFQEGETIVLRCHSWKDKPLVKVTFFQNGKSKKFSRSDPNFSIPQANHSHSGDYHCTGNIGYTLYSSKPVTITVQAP
T7 sequence (O75015 other isoform, or with tags, fused parts or gaps limits assumed): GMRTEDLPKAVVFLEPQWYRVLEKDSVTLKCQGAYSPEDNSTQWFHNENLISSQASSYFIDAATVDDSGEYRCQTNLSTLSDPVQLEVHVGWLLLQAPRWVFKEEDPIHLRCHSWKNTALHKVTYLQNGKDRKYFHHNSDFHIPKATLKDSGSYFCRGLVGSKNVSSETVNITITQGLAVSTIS

B1: PD1-PL1-3F2-FV3A-IgG1 (bispecific antibody)
heavy: EVQLVESGGGLVQPGGSLRLSCAASGFTFSSYSMSWVRQAPGKRLEWVAHISSGGSSTYYPDTVKGRFTISRDNSKNTLYLQMNSLRAEDTAMYYCTRQFYYGSSFWYFDVWGAGTTVTVSSASTKGPSVFPLAPSSKSTSGGTAALGCLVKDYFPEPVTVSWNSGALTSGVHTFPAVLQSSGLYSLSSVVTVPSSSLGTQTYICNVNHKPSNTKVDKKVEPKSCDKTHTCPPCPAPELLGGPSVFLFPPKPKDTLMISRTPEVTCVVVDVSHEDPEVKFNWYVDGVEVHNAKTKPREEQYNSTYRVVSVLTVLHQDWLNGKEYKCKVSNKALPAPIEKTISKAKGQPREPQVYTLPPSREEGGGGSGGGGSQVQLQESGPGLVKPSETLSLTCTVSGYSITSGYNWHWIRQFPGNCLEWMGYIHHSSITNYNPSLKSRITISRDTSKNQFSLKLSSVTAADTATYYCAREGYDYDWFAYWGQGTLVTVSSASTGGGGSGGGGSGGGGSGGGGSDIVLTQSPDFQSVTPKEKVTLSCRASQSISNNLHWYQQKPDESPKLLIKYASQSISGIPSRFSGSGSGTDFTLTINSVEAEDFAMYFCQQSKSWPFTFGCGTRLEIKGGGGSGGGGSVSLTCLVKGFYPSDIAVEWESNGQPENNYKTTPPVLDSDGSFFLYSKLTVDKSRWQQGNVFSCSVMHEALHNHYTQKSLSLSPGK
light: DNVLTQSPATLSVSPGERATLSCKASQSVDFDGDSYMNWYQQKPGQPPRLLIYAASNLESGIPARFSGSGSGTDFTLTISSVEPEDFATYYCQQSNEDPPTFGGGTKVEIKRTVAAPSVFIFPPSDEQLKSGTASVVCLLNNFYPREAKVQWKVDNALQSGNSQESVTEQDSKDSTYSLSSTLTLSKADYEKHKVYACEVTHQGLSSPVTKSFNRGEC
notes: IgG1; also called G4
In the case of B1, the Kd (commonly the free concentration of one partner at which half of the binding sites on the other are occupied at equilibrium, for simple one-to-one binding) is 2350 nM with FcγRIIB; 2.41 nM in experiment [1]; 2.94 nM with FcγRI-Sino; 326 nM in the experiment with FcγRIIA-R167; 84.6 nM with FcγRIIIA-F176; 633 nM in the experiment with FcγRIIA-H167-Acro. Moreover, the Kd with FcγRIIIB-NA1-Acro worked out at 1180 nM; with FcγRIIIA-V176-Acro, 130 nM. Besides, the dissociation rate constant (koff) (in general, a measure of how fast the partners let go of each other) in experiment [1] worked out at 0.00103 s⁻¹. Besides, the kon (commonly the second-order rate constant of association) in experiment [1] was determined as 429000 M⁻¹ s⁻¹.

B2: PDL1-C40-6A7-FV3A-IgG4 (bispecific antibody)
heavy: EVQLLESGGGLVQPGGSLRLSCAASGFTFSSYIMMWVRQAPGKGLEWVSSIYPSGGITFYADTVKGRFTISRDNSKNTLYLQMNSLRAEDTAVYYCARIKLGTVTTVDYWGQGTLVTVSSASTKGPSVFPLAPCSRSTSESTAALGCLVKDYFPEPVTVSWNSGALTSGVHTFPAVLQSSGLYSLSSVVTVPSSSLGTKTYTCNVDHKPSNTKVDKRVESKYGPPCPPCPAPEFLGGPSVFLFPPKPKDTLMISRTPEVTCVVVDVSQEDPEVQFNWYVDGVEVHNAKTKPREEQFNSTYRVVSVLTVLHQDWLNGKEYKCKVSNKGLPSSIEKTISKAKGQPREPQVYTLPPSQEEGGGGSGGGGSDVVMTQSPLSLPVTLGQPASISCRSSQSLLHSNGNTYLHWYQQRPGQSPNHLIYQVSNRFSGVPDRFSGSGSGTDFTLKISRVEAEDVGVYFCSQTTHVPWTFGCGTKVEIKGGGGSGGGGSGGGGSGGGGSQVQLVQSGAEVKKPGASVKLSCKASGYTFISYYIYWVKQAPGQCLEWIGGINPRNGGTNFNEKFKSRATLTVDTSISTAYMELSRLRSEDTAVYYCTRHGNGVYWGQGTTLTVSSGGGGSGGGGSVSLTCLVKGFYPSDIAVEWESNGQPENNYKTTPPVLDSDGSFFLYSRLTVDKSRWQEGNVFSCSVMHEALHNHYTQKSLSLSLGK
light: QSALTQPASVSGSPGQSITISCTGTSSDVGGYNYVSWYQQHPGKAPKLMIYDVSNRPSGVSNRFSGSKSGNTASLTISGLQAEDEADYYCSSYTSSSTRVFGTGTKVTVLGQPKANPTVTLFPPSSEELQANKATLVCLISDFYPGAVTVAWKADGSPVKAGVETTKPSKQSNNKYAASSYLSLTPEQWKSHRSYSCQVTHEGSTVEKTVAPTECS
notes: IgG4 subtype of PDL1-C40-6A7-FV3A; also called G5
As for B2, the Kd was found to be 766 nM in the experiment with FcγRIIB; 0.852 nM with human CD40 (hCD40-his); 1.22 nM with FcγRI-Sino; 706 nM with FcγRIIA-R167; 1130 nM with FcγRIIA-H167-Acro; 75.3 nM with FcγRIIIA-V176-Acro. The molecule also gave a koff in the experiment with human CD40 (hCD40-his) of 0.000432 s⁻¹. Further, the kon with human CD40 (hCD40-his) was found to be 507000 M⁻¹ s⁻¹.
